Values of other authors as cited in paper PMC5242463.
pKd: −log10 of the molar value.

Molecular target: Trigger Factor (Escherichia coli) (UniProt P0A850)
Sequence (P0A850 whole entry): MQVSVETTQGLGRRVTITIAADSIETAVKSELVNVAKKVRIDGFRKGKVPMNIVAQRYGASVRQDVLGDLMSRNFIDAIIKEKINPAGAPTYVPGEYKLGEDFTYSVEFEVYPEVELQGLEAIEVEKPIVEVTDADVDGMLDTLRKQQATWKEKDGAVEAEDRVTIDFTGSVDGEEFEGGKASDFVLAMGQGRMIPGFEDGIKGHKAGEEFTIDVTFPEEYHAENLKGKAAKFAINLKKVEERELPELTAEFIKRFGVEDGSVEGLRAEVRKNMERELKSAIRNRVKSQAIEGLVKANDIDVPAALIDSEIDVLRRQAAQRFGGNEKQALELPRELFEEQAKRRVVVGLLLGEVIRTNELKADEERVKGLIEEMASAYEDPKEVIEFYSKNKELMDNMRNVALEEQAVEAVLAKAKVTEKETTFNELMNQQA

Nascent Lep, sequence (P00803 whole entry): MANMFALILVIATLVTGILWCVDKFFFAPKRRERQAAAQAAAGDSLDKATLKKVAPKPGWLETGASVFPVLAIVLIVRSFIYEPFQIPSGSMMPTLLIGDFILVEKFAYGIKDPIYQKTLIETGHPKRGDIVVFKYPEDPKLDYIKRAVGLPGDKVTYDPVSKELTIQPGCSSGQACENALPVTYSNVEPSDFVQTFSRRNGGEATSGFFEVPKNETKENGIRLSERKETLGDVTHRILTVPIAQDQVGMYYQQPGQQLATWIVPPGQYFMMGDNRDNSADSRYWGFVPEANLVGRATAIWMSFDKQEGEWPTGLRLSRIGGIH

pKd: 6.51
Substance: Nascent Lep (from UniProt P00803)
